Results: patent US9023353B2, “Anti-(+)—methamphetamine monoclonal antibodies” (Board of Trustees University of Arkansas, priority 2013, dated 2015)
Entries after “also recorded” stand apart in the source; their conditions may differ.

Tests used:
ch-Antibody 51 = experiment: ligand cross-reactivity testing: inhibition of [3H]-METH binding to antibody
From the text: Ch-Antibody 51 was designed to maintain the variable framework regions of the heavy and light chains of the mouse antibody including all three CDRs of both the heavy and the light chains, but includes a human IgG2 Fc region. These studies were designed to examine the potential for ch-Antibody 51 to bind to structurally-related stimulants, neurotransmitters, selected medications, and other drugs of abuse (Table 4). The assay used a modified radioimmunoassay (RIA) in a competitive binding format with [^3H]-METH (similar to RIA in Peterson et al., J Pharmacol Exp Ther (2008) 325:124-133) The assay is started by incubating radiolabeled METH ([^3H]-METH) with unlabeled potential ligand (concentrations typically range from 0.03-5000 nM), ch-Antibody 51, and Protein G conjugated to magnetic beads. After reaching equilibrium, the beads with bound antibody and ligand are separated from the solution with a magnet and the supernatant aspirated. The amount of mAb-bound [^3H]-METH is quantified by liquid scintillation counting. For each of the related stimulants, a complete inhibition curve was constructed to determine the KD or KI value (see FIG. 7). For the remaining test ligands, the same method was used, but only 2 concentrations of ligand were tested rather than the expanded range. Additionally, highly concentrated pools of compounds were used to attempt inhibition of [^3H]-METH binding to ch-Antibody 51. If METH binding was inhibited 50% or more by any pool of ligands, the assay was repeated with the compounds separately to identify the individual cross reacting ligands.
Average disintegrations per minute (DPM) from the scintillation counter were plotted versus the concentration of unlabeled ligand using Origin software (OriginLab). A 4-parameter logistic function was fit to the data to obtain values describing the top and bottom plateaus, slope and mid-point. The mid-point of the curve identifies the concentration of unlabeled ligand required to inhibit 50% of the binding of [^3H]-METH. For homologous assays in which unlabeled METH competes with [^3H]-METH for binding to ch-Antibody 51, the dissociation constant (KD) is found by subtracting the concentration of [^3H]-METH from the mid-point. For non-homologous assays in which unlabeled ligands other than METH compete for binding with [^3H]-METH, the subtraction yields a KI value.
Each pool was analyzed in triplicate, twice at each concentration.
Three (3) of the pools inhibited binding of radiolabeled METH by more than 50%, therefore these individual ligands were retested at 1 μM in triplicate in 2 separate assays.

[1] = long-term in vivo METH binding function during continuous sc (+)-METH infusion; set-up: species or system Sprague-Dawley rats; settings: rats, single iv mAb dose 180 mg/kg, sc (+)-METH infusion 5.6 mg/kg/day, serum METH to day 13
Procedure: FIG. 1 depicts two graphs showing changes in METH in vivo binding by anti-METH monoclonal antibodies (mAbs) in the presence of a 13 day continuous METH infusion. Once METH achieved steady-state levels (pre-mAb) in each of the Sprague-Dawley rats (n=2 per group), a single dose of vehicle treatment (METH only) or of treatment with three different anti-METH mAbs were given as an iv bolus (180 mg/kg, equimolar in binding sites to the METH body burden). Serum samples were collected before the mAb treatment and at various time points after mAb treatment for determination of METH concentrations over time (A). Values represent the mean METH concentration of each group for each time point. METH AUC data is shown in (B). […]
About 16 h after pumps implantation, the rats were anesthetized with halothane. […] METH concentrations in serum samples were then determined by liquid chromatograph/mass spectrometry/mass spectrometry (LC/MS/MS) analysis by a previously reported method from our laboratory (Laurenzana E M et al. Drug Metab Dispos (1995) 23: 271-278).
The route of (+)-METH dosing was a subcutaneous (sc) infusion. […] Body weights, eating behavior, and general health observations were recorded for each animal. (+)-METH concentrations were determined by LC/MS/MS, similar to the method described by described by (Laurenzana E M et al. Drug Metab Dispos (1995) 23: 271-278). […]

[2] = terminal elimination half-life in rats; assay type: in vivo; settings: unpublished finding
[3] = (±)-METH priming-induced reinstatement (relapse) of lever pressing; assay type: in vivo, male Long Evans rat; settings: for response rate (lever presses on reinforced lever): Day 1, 1 mg/kg ip (±)-METH prime
Procedure: The male Long Evans rat was chosen as the animal model for this study because it is a preferred rodent species for preclinical toxicity testing of drug self-administration paradigms. Commercially obtained test chambers equipped with two retractable levers, a white cue light positioned above each lever, a 5-w house light, and a Sonalert® tone generator (MED Associates, Inc., St. Albans, Vt.) emitting a 2900 Hz, 60 dB tone were used. Infusions were delivered in a 0.2 ml volume by a 6-s activation of infusion pumps (Model PHS-100; MED Associates, Inc., St. Albans, Vt.). Recordings of lever presses and activations of lights, pumps, and Sonalerts® were accomplished by a microcomputer, interface and associated software (MED-PC® IV, MED Associates, Inc., St. Albans, Vt.).
(±)-METH self-administration (SA) training sessions were conducted five days per week (M-F) for 2 hrs daily. At the start of (±)-METH SA sessions, the levers were extended and the house light was illuminated. […] At the start of an infusion the house light was extinguished, the Sonalert® was sounded, and the cue lights above each lever flashed at 3 Hz. The Sonalert® and cue lights remained activated during the 6 s infusion. Twenty seconds following the onset of the infusion the house light was re-illuminated, and the opportunity to self-administer (±)-METH was again made available (i.e., each (±)-METH infusion initiated a 20 s period during which lever presses were recorded but were without scheduled consequences and further infusions could not be obtained). Reinforced-lever (right-side) lever presses during the infusions as well as all non-reinforced (left-side) lever presses were recorded, but the latter were without scheduled consequences.
SA training continued until all three criteria had been met: 1) at least 12 self-administration sessions occurred; 2) at least 15 (±)-METH infusions occurred during each of the last four sessions; and, 3) at least 125 lifetime (±)-METH infusions were obtained. Subsequently, twelve 2-h daily (Mon-Sun) extinction sessions were conducted. […] Other conditions during extinction were identical to those during SA. That is, during extinction sessions, both levers were extended and the house light was activated. Before the last four extinction sessions, an injection of saline (the vehicle for (±)-METH prime) was administered ip 30 min pre-session to acclimate the rats to the injection procedure.
Reinstatement testing followed extinction training. A rat was considered eligible for subsequent reinstatement testing if during the last three extinction sessions the mean number of reinforced-lever lever presses was less than the mean number occurring during the first three extinction sessions. […] One rat in the vehicle group was inadvertently retained, even though its response mean (12.3 responses) during the last three extinction sessions exceeded its first three extinction sessions (11.6 responses). Reinstatement testing occurred across 13 daily (Mon-Sun) 2-h experimental sessions. Conditions during reinstatement testing were identical to those during extinction training with two exceptions.
The ip route of (±)-METH exposure during relapse testing was selected mainly for convenience of dosing and to avoid additional use of the catheters. […] The dose volume for each animal was based on the most recent body weight measurement.
Body weights, eating behavior, and general health observations were recorded for each animal. Analyses of an animal's lever pressing responses to vehicle and (±)-METH-induced relapse to active lever responding were used as a measure of the animal's response to an ip injection of vehicle (control) or (±)-METH (1.0 mg/kg).
Initially, the number of right-side lever presses occurring during test days between test groups was compared using a two-factor, repeated measures ANOVA (Prism 5 for Macintosh, GraphPad Software, Inc., San Diego, Calif.). […]

[4] = individual ligands at 1 μM, triplicate in 2 assays, average

CN[C@@H](C)[C@H](O)c1ccccc1 (racemic) [(±)-Ephethine]
Percent inhibition of [3H]-METH binding (ch-Antibody 51; [4]): 26.1%

CC(N)Cc1ccc2c(c1)OCO2 (single isomer, unassigned; (+)) [(+)-MDA, (+) 3,4-methylenedioxyamphetamine]
Percent inhibition of [3H]-METH binding (ch-Antibody 51; [4]): 40.7%

CNC(C)Cc1ccc2c(c1)OCO2 (single isomer, unassigned; (-)) [(−)-MDMA]
Percent inhibition of [3H]-METH binding (ch-Antibody 51; [4]): 78.3%
Ki (ch-Antibody 51; inferred from more than 50% inhibition at 1 μM): < 1 µM

NCCc1ccccc1 [2-Phenylethylamine]
Percent inhibition of [3H]-METH binding (ch-Antibody 51; [4]): 20.0%

CNC[C@H](O)c1cccc(O)c1 [(−)-Phenylephrine]
Percent inhibition of [3H]-METH binding (ch-Antibody 51; [4]): 38.2%

NCCc1ccc(O)cc1 [Tyramine]
Percent inhibition of [3H]-METH binding (ch-Antibody 51; ligand pool, each inhibitor in pool 1 μM): 2.1%
Percent inhibition of [3H]-METH binding (ch-Antibody 51; ligand pool, each inhibitor in pool 10 μM): 7.5%

(+)-Norpseudoephedrine
Percent inhibition of [3H]-METH binding (ch-Antibody 51; [4]): 36.3%

(+)-Pseudoephedrine
Percent inhibition of [3H]-METH binding (ch-Antibody 51; [4]): 5.1%

B1: Antibody 51: high affinity murine anti-METH monoclonal antibody; light chain SEQ ID NO: 3, heavy chain SEQ ID NO: 4 (antibody)
heavy: EIQLQQSGPELGKPGASVKVSCRASGFSFADYYIYWVKQSHGKSLELIGYIDPFNGGDTYNQIFKGKATLTVDKSSSTAFMYLNSLTSEDSAVYYCAAFRNPSFDFWGQGTTLTVSSAKTTPPSVYPLAPGSAAQTNSMVTLGCLVKGYFPEPVTVTWNSGSLSSGVHTFPAVLQSDLYTLSSSVTVPSSTWPSETVTCNVAHPASSTKVDKKIVPRDCGCKPCICTVPEVSSVFIFPPKPKDVLTITLTPKVTCVVVDISKDDPEVQFSWFVDDVEVHTAQTQPREEQFNSTFRSVSELPIMHQDWLNGKEFKCRVNSAAFPAPIEKTISKTKGRPKAPQVYTIPPPKEQMAKDKVSLTCMITDFFPEDITVEWQWNGQPAENYKNTQPIMDTDGSYFVYSKLNVQKSNWEAGNTFTCSVLHEGLHNHHTEKSLSHSPGK
light: QIVLIQSPPIMSASPGEKVTLTCSASSSVSSRYLYWYQQKPGSSPKLWIYGTSNLASGVPARFSGSGSGTSFSLTISSMEAEDAASYFCHQWSSFPFTFGSGTKLEIKRADAAPTVSIFPPSSEQLTSGGASVVCFLNNFYPKDINVKWKIDGSERQNGVLNSWTDQDSKDSTYSMSSTLTLTKDEYERHNSYTCEATHKTSTSPIVKSFNRNEC
modifications: SYTHENSIZED
long-term in vivo METH binding function [1]: showed long-term functional properties
terminal elimination half-life [2]: ~140 h
responding with subsequent treatments every three days ([3]; 30 mg/kg iv): maintained responding at levels always higher than the control
increase over control values ([3]; 30 mg/kg iv, Day 1): 143%
response rate (lever presses on reinforced lever) ([3]; 30 mg/kg iv): 70 presses
responding with subsequent treatments every three days ([3]; 56 mg/kg iv): progressively lower responses from the Day 1 level of responding
increase over control values ([3]; 56 mg/kg iv, Day 1): 182%
response rate (lever presses on reinforced lever) ([3]; 56 mg/kg iv): 91 presses
lever presses ([3]; 100 mg/kg iv, Day 1): ~50 lever presses
responding compared to vehicle ([3]; 100 mg/kg iv, Day 1): at the same level as vehicle treatment responding
apparent METH dose on ascending side of simulated dose-response curve ([3]; 100 mg/kg iv, Day 1, pharmacodynamic simulation, 50 responses): ~0.025 mg/kg/inj
responding compared to control ([3]; 100 mg/kg iv, Day 7, after third dose): significantly reduced; also recorded: near extinction
responding ([3]; 100 mg/kg iv, Day 10, administration stopped): remained blunted
responding ([3]; 100 mg/kg iv, Day 13, administration stopped): return to near control levels of responding
responding compared to control ([3]; 100 mg/kg iv, after the second administration): reduced responding below control levels
